# In article PMC10790770:
# Key:
# Test in all cases: cross-linking; cysteine cross-linking with CuCl2 in E. coli co-producing the T2SS lacking pulF (pCHAP8252) and PulF or PulFΔN Cys variants (pCHAP8259 derivatives); total extracts on 4%–15% SDS gradient gels, blot with anti-PulFC
# [1] = biological target: PulF^V171C-P371C (K. oxytoca) (UniProt P15745)
# [2] = biological target: PulF^Y168C-E370C (K. oxytoca) (UniProt P15745)
# [3] = biological target: PulFΔN^V171C-P371C (K. oxytoca) (UniProt P15745)
# [4] = biological target: PulFΔN^Y168C-E370C (K. oxytoca) (UniProt P15745)
substance,measurement,setting,value
PulF^V171C-P371C (from UniProt P15745 1-381) (natural protein),stoichiometry N,[1],3
PulF^Y168C-E370C (from UniProt P15745 1-381) (natural protein),stoichiometry N,[2],3
PulFΔN^V171C-P371C (from UniProt P15745 35-381) (domain or fragment),stoichiometry N,[3],3
PulFΔN^Y168C-E370C (from UniProt P15745 35-381) (domain or fragment),stoichiometry N,[4],3
